Results as given in US20220177583A1.
Numbering of substitutions follows the chain as printed.

B1: AB9-3 (antibody, V domains shown)
VH: QVQLVQSGAEVKKPGASVKMSCKASGYRFTDYNMHWVRQAPGQGLEWIGYINPNNGGTNYAQKFQGRATLTVDTSTSTAYMELSSLRSEDTAVYYCARDYLYFFDCWGQGTLLTVSS
VL: DIQMTQSPSSLSASVGDRVTITCLASQTIGTWLAWYQQKPGKAPKLLIYAAASLADGVPSRFSGSGSGTDFTFTISSLQPEDFVTYYCQQLYSIPRTFGQGTKLEIK
B2: AB9-4 (antibody, V domains shown)
VH: B1 VH
VL: B1 VL with L24R
B3: AB3-2 (antibody, V domains shown)
VH: EVQLLESGGGLVQPGGSMRLSCAASGFTFSNYWMNWVRQAPGKGLEWVAQIRLKSDNYATHYADSVKGRFTISRDDSKNTVYLQMNSLRAEDTGVYYCNDGPPSGCWGQGTLLTVSS
VL: DIQMTQSPSSLSASVGDRVTITCRISENIYSYLAWYQQKPGKAPKLLIYNAKILVEGVPSRFSGSGSGTDFTLTISSLQPEDFATYYCQHHYTVPWTFGQGTKLEIK
B4: AB3-3 (antibody, V domains shown)
VH: B3 VH
VL: B3 VL with I48V, A84G
B5: AB3-4 (antibody, V domains shown)
VH: B3 VH with C106Y
VL: B3 VL
B6: AB3-5 (antibody, V domains shown)
VH: B3 VH with C106Y
VL: B3 VL with I48V, A84G
B7: AB9-chim (antibody, V domains shown)
VH: EVQLQQSGPELVKPGASVKMSCKASGYRFTDYNMHWVKQSHGKSLEWIGYINPNNGGTNYNQNFKGKATLTVNKSSSTAYMELRSLTSEDSAAYYCARDYLYFFDCWGQGTTLTVSS
VL: DIQMTQSPASQSASLGESVTITCLASQTIGTWLAWYQQKPGKSPQLLIYAAASLADGVPSRFSGSGSGTRFSFKISSLQAEDFVSYYCQQLYSIPRTFGGGTKLEIK
B8: AB1-3 (antibody, V domains shown)
VH: QVQLVQSGAEVKKPGASVKVSCKASGYTFTTYTMHWVRQAPGQGLEWMGFINPSSGYTDYAQKFQGRVTMTADTSTSTVYMELSSLRSEDTAVYYCANGDYYVAYWGQGTLVTVSS
VL: DIQMTQSPSSLSASVGDRVTITCTASSSVSSTYFHWYQQKPGKAPKLLIYSTSNLASGVPSRFSGSGSGTDYTLTISSLQPEDFATYYCHQYHRSPLTFGQGTKLEIK
B9: AB1-4 (antibody, V domains shown)
VH: B8 VH
VL: B8 VL with M4L, I21M, L79M, F84A
B10: AB1-6 (antibody, V domains shown)
VH: B8 VH with V20M, M48I, M70L
VL: B8 VL
B11: AB1-5 (antibody, V domains shown)
VH: B8 VH
VL: B8 VL with M4L, I21M, L48W, L79M, F84A
B12: AB1-11 (antibody, V domains shown)
VH: B8 VH with V20M, M48I, M70L, T74K
VL: B8 VL with M4L, I21M, L48W, L79M, F84A
B13: AB1-7 (antibody, V domains shown)
VH: B8 VH with V20M, M48I, M70L
VL: B8 VL with M4L, I21M, L79M, F84A
B14: AB1-8 (antibody, V domains shown)
VH: B8 VH with V20M, M48I, M70L
VL: B8 VL with M4L, I21M, L48W, L79M, F84A
B15: AB4-3 (antibody, V domains shown)
VH: QVQLVQSGAEVKKPGASVKVSCKASGYTFTSYTMHWVRQAPGQGLEWMGYINPSSTYTHYAQKFQGRVTMTADTSTSTVYMELSSLRSEDTAVYYCSRGELGGFAYWGQGTLVTVSS
VL: DVVMTQSPLSLPVTLGQPASISCRSSQSLVHSDGNTYLNWYQQRPGQSPRLLIYKVSNRFSGVPDRFSGSGSGTDFTLKISRVEAEDVGVYYCSQSTHVPYTFGQGTKLEIK
B16: AB4-9 (antibody, V domains shown)
VH: B15 VH with V20M, V37I, M48I, A61I, Q62K, Q65K, G66D, V68A, M70L, V79A
VL: B15 VL
B17: AB4-8 (antibody, V domains shown)
VH: B15 VH with A61I, Q62K, Q65K, G66D
VL: B15 VL
B18: AB4-4 (antibody, V domains shown)
VH: B15 VH with V20M, V37I, M48I, V68A, M70L, V79A
VL: B15 VL
B19: AB4-6 (antibody, V domains shown)
VH: B15 VH with V20M, V37I, M48I, V68A, M70L, T74K, V79A
VL: B15 VL
B20: AB4-12 (antibody, V domains shown)
VH: QVQLVQSGAEVKKPGASVKMSCKASGYTFTSYTMHWIRQAPGQGQEWIGYINPSSTYTHYIKKFKDRATLTADKSTSTAYMELSSLRSEDTAVYYCSRGELGGFAYWGQGTLVTVSS
VL: B15 VL
B21: AB4-5 (antibody, V domains shown)
VH: B20 VH with I61A, K62Q, K65Q, D66G, K74T
VL: B15 VL
B22: AB4-11 (antibody, V domains shown)
VH: B20 VH with Q45L
VL: B15 VL
B23: AB4-10 (antibody, V domains shown)
VH: B20 VH with K74T
VL: B15 VL
B24: AB4-7 (antibody, V domains shown)
VH: B20 VH with I61A, K62Q, K65Q, D66G
VL: B15 VL
B25: AB3-chim (antibody, V domains shown)
VH: EVKLEESGGGLVQPGGSMKLSCVASGFTFSNYWMNWVRQSPEKGLEWVAQIRLKSDNYATHYAESVKGRFTISRDDSKRSVYLQMNNLRAEDTGTYYCNDGPPSGCWGQGTTLIVSS
VL: DIQMTQSPASLSASVGETVTITCRISENIYSYLAWYQQKQGKSPQLLVYNAKILVEGVPSRFSGSGSGTQFSLKINSLQPEDFGNYYCQHHYTVPWTFGGGTKLEIK
B26: AB1-Chim (antibody, V domains shown)
VH: QVQLQQSAAELARPGASVKMSCKASGYTFTTYTMHWVKQRPGQGLEWIGFINPSSGYTDYNQKFKDRTTLTADKSSSTVYMQLSSLTSEDSAVYYCANGDYYVAYWGQGTLVTVSA
VL: QIVLTQSPAIMSASLGERVTMTCTASSSVSSTYFHWYQQKPGSSPKLWIYSTSNLASGVPRRFSGSASGTSYSLTISSMEAEDAATYYCHQYHRSPLTFGAGTKLELK
B27: AB18-chim (antibody, V domains shown)
VH: QVQLKQSGPELEKPGASVKISCKASGYSFTGYNMNWVKQSNGKSLEWIGNIDPYYGGSTYNQKFTGKATLTVDKSSSTAYMQLKSLTSEDSAVYYCARERSGYVFSAMDYWGQGTSVTVSS
VL: NIMMTQSPSSLAVSAGEKVTMSCKSSQSVLFSSNQKNYLAWYQQKPGQSPRLLIYWASTRESGVPDRFTGSGSGTDFTLTISNVQAEDLAVYYCHQYLSSRTFGAGTKLELK
B28: AB11-chim (antibody, V domains shown)
VH: DVQLVESGGGLVQPRGSRKLSCAASGFTFSSFGMHWVRQAPEKGLEWVAYISSDSRTIYYADTVKGRFTISRDNPTNTLFLQMTSLRSEDTAMYYCARDYGRTYEAYWGQGTLVTVSA
VL: DIVLTQSPASLAVSLGQRATISCRASKSVSTSGYSYIHWYQQKPGQPPKLLIYLASNLESGVPARFSGSGSGTDFTLNIHPVEEEDAATYYCQHSRELPLTFGAGTKLELK
B29: AB18-4 (antibody, V domains shown)
VH: QVQLVQSGAEVKKPGASVKVSCKASGYSFTGYNMNWVRQAPGQGLEWMGNIDPYYGGSTYAQKFQGRVTMTVDTSTSTVYMELSSLRSEDTAVYYCARERSGYVFSAMDYWGQGTLVTVSS
VL: DIVMTQSPDSLAVSLGERVTMNCKSSQSVLFSSNQKNYLAWYQQKPGQPPKLLIYWASTRESGVPDRFSGSGSGTDFTLTISSVQAEDVAVYYCHQYLSSRTFGQGTKLEIK
B30: AB18-6 (antibody, V domains shown)
VH: B29 VH with V20I, M48I, V68A, M70L, V79A
VL: B29 VL

Legend:
[1] = target: human CLDN6 fused to GFP, expressed on engineered HEK293T cells (human) (UniProt P56747); assay: FACS, 293T clone with human CLDN6, 0.3 ug Ab
[2] = target: human CLDN6 fused to GFP, expressed on engineered HEK293T cells (human) (UniProt P56747); assay: FACS, 293T clone with human CLDN6, 1.5 ug Ab

| Binder | FACS signal [1] | FACS signal [2] |
| --- | --- | --- |
| B1 | 9500 | 24600 |
| B2 | 15300 | 34300 |
| B3 | 309000 | 396000 |
| B4 | 251000 | 340000 |
| B5 | 11600 | 55800 |
| B6 | 13300 | 48600 |
| B7 | 46700 | 72000 |
| B8 | 142000 | 142000 |
| B9 | 102000 | 197000 |
| B10 | 120000 | 227000 |
| B11 | 138000 | 213000 |
| B12 | 64900 | 113000 |
| B13 | 79200 | 207000 |
| B14 | 98800 | 210000 |
| B15 | 14300 | 47800 |
| B16 | 37200 | 56900 |
| B17 | 49300 | 77600 |
| B18 | 14100 | 49000 |
| B19 | 10800 | 29200 |
| B20 | 71100 | 86200 |
| B21 | 16800 | 43400 |
| B22 | 37800 | 61200 |
| B23 | 50800 | 77200 |
| B24 | 19200 | 33300 |
| B25 | 267000 | 459000 |
| B26 | 312000 | 364000 |
| B27 | 73800 | 135000 |
| B28 | 1670 | 3490 |
| B29 | 32400 | 54400 |
| B30 | 26900 | 58500 |
